These results are taken from paper PMC3649970, “A Unique Spumavirus Gag N-terminal Domain with Functional Properties of Orthoretroviral Matrix and Capsid” (PLoS Pathogens, 2013).

The chains are these.
B1: PFV-Gag-NtD (amino terminal domain of Prototypic Foamy Virus Gag, residues 1-179) [Prototypic foamy virus (PFV)] / PFV Env leader peptide residues 1-20 [Prototypic foamy virus (PFV)] (parent)
chain 1: MASGSNVEEYELDVEALVVILRDRNIPRNPLHGEVIGLRLTEGWWGQIERFQMVRLILQDDDNEPLQRPRYEVIQRAVNPHTMFMISGPLAELQLAFQDLDLPEGPLRFGPLANGHYVQGDPYSSSYRPVTMAETAQMTRDELEDVLNTQSEIEIQMINLLELYEVETRALRRQLAERS
chain 2: MAPPMTLQQWIIWKKMNKAH

The variants in the assay derive from B1. As to the kind of experiment: sedimentation velocity analytical ultracentrifugation. The conditions noted are these: with PFV Env leader peptide residues 1-20 [Prototypic foamy virus (PFV)]; 75 µM equimolar mixtures of Gag-NtDs with Env(1-20); read off a plot.
Take chain 1 L21S: the Ka is 0.29 10^5 M^-1.

chain 1 L21N: the Ka was 0.3 10^5 M^-1.

Take chain 1 V14S L21S: the Ka was 0.07 10^5 M^-1.

With chain 1 N29Q, the Ka is 1.4 10^5 M^-1.

Turning to chain 1 V14S V18S, the Ka is 0.18 10^5 M^-1.

Take chain 1 V14S: the Ka was 0.51 10^5 M^-1.

Take chain 1 V18S L21S: the Ka is 0.16 10^5 M^-1.

chain 1 L17S: the Ka is 0.71 10^5 M^-1.

Regarding chain 1 V18S, the Ka was 0.6 10^5 M^-1.
